This test deals with T1, human TIGIT (human, UniProt Q495A1 22-244).
T1 construct: whole, on cells; The assays used cell-surface TIGIT; also called T-cell immunoreceptor with Ig and ITIM domains; VSIG9
T1 sequence (looked up): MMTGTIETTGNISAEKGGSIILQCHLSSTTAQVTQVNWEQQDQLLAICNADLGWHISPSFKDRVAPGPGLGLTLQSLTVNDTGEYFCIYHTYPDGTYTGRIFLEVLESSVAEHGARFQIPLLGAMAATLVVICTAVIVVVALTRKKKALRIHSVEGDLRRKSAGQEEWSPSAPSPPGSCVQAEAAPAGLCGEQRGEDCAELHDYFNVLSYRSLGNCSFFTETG
Description: flow cytometry on anti-CD3-activated human PBMC, gated on CD4+ and CD8+ T cells. As for the experimental part: After four days, the sample plates were centrifuged for two minutes at 2000 rpm and then supernatants were discarded. Samples were blocked with FcγR Block prepared in FACs buffer at 5 μL per 100 μL for 10 minutes. Sample plates were then centrifuged for two minutes at 2000 rpm and the supernatant was discarded. The cells were then resuspended in 100 μL of BA159 or a relevant isotype control antibody. To prepare antibodies, each antibody was diluted to 40 μg/mL in buffer for a final volume of 200 μL. Antibodies were then serially diluted 1 to 4 for a total of 12 dilutions ranging from 40 μg/mL to 0.00000954 μg/mL.
Cells were then resuspended in a cocktail of fluorescently labeled antibodies prepared in FACs buffer. 100 μL of antibody was add per well of a round-bottom 96-well plate. The sample plate was incubated for 20 minutes on ice. Cells were then washed by addition of cold sample buffer, centrifuged for two minutes at 2000 rpm, and supernatants were discarded. This wash was repeated once. […]
Antibody binding was measured by flow cytometry using a BD LSR Fortessa Flow Cytometer. […] 100,000 events were recorded for each sample. Samples were analyzed by sequentially gating on the following populations: FSC-A vs SSC-A, FSC-H vs FSC-A, SSC-A vs LIVE/DEAD, and CD4 vs CD8 Mean fluorescence intensity (MFI) was calculated.
For orientation: Flow cytometry measures light scatter and fluorescence of single cells or particles in a stream.

B1: BA159 (antibody, human IgG1, lambda)
heavy: EVQLVQSGAEVKKPGSSVKVSCKASGYTFASYGISWVRQAPGQGLEWMGGITPFFNRVDVAEKFQGRVTITADKSTSTAYIELSSLRSEDTAVYYCARDLRRGGVGDAFDIWGRGTLVTVSSASTKGPSVFPLAPSSKSTSGGTAALGCLVKDYFPEPVTVSWNSGALTSGVHTFPAVLQSSGLYSLSSVVTVPSSSLGTQTYICNVNHKPSNTKVDKRVEPKSCDKTHTCPPCPAPELLGGPDVFLFPPKPKDTLMISRTPEVTCVVVDVSHEDPEVKFNWYVDGVEVHNAKTKPREEQYNSTYRVVSVLTVLHQDWLNGKEYKCKVSNKALPLPEEKTISKAKGQPREPQVYTLPPSREEMTKNQVSLTCLVKGFYPSDIAVEWESNGQPENNYKTTPPVLDSDGSFFLYSKLTVDKSRWQQGNVFSCSVMHEALHNHYTQKSLSLSPGK
light: QSALTQPRSVSGSPGQSVTISCTGTSSDVGSHNYVSWYQQHPGKAPKLMIYEVSYRPSGVSNRFSGSKSGNTASLTISGLQAEDEADYYCSSYTPSSATVFGAGTKLTVLGQPKAAPSVTLFPPSSEELQANKATLVCLISDFYPGAVTVAWKADSSPVKAGVETTTPSKQSNNKYAASSYLSLTPEQWKSHRSYSCQVTHEGSTVEKTVAPTECS
notes: also called anti-TIGIT antibody BA159
For the molecule B1, the binding result is recorded as “binds”.

Values taken from patent US20220389095A1 (AGENUS, published 2022).
